How the values were obtained:
Assay in all cases: ITC
[1] = target: T1, tH2 (aa91-189) mutant K^116K^117A (vaccinia virus, UniProt P08583 91-189, K^116K^117A | K^116K^117A)
T1 sequence: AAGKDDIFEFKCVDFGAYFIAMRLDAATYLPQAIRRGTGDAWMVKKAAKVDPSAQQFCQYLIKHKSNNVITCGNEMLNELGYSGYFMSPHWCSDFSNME

[2] = target: T2, tH2 (aa91-189) mutant R^125R^126A (vaccinia virus, UniProt P08583 91-189, R^125R^126A | R^125R^126A)
T2 sequence: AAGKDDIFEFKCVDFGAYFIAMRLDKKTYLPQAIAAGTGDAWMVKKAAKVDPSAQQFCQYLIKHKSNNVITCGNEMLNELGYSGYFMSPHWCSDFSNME

[3] = target: T3, tH2 (aa91-189) mutant D^130A (vaccinia virus, UniProt P08583 91-189, D^130A)
T3 sequence: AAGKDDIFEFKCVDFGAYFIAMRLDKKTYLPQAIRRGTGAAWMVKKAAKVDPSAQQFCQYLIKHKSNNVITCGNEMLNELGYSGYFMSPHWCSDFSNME

[4] = target: T4, tH2 (aa91-189) mutant G^127G^129A (vaccinia virus, UniProt P08583 91-189, G^127G^129A | G^127G^129A)
T4 sequence: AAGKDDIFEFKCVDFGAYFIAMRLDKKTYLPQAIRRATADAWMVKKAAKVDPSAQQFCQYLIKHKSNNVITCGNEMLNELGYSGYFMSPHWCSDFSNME

[5] = target: T5, tH2 (aa91-189) mutant D^141A (vaccinia virus, UniProt P08583 91-189, D^141A)
T5 sequence: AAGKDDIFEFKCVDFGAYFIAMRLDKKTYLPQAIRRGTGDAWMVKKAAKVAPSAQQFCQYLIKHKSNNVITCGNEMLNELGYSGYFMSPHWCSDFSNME

[6] = target: T6, tH2 (aa91-189) mutant W^132A (vaccinia virus, UniProt P08583 91-189, W^132A)
T6 sequence: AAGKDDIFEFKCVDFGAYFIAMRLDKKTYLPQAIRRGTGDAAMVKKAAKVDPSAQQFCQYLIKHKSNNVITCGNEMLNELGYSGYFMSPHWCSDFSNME

B1: recombinant A28 (aa56-146) (domain or fragment)
chain: DRRVQDVNDTISDVKQKWRCVVYPGNGFVSASIFGFQAEVGPNNTRSIRKFNTMQQCIDFTFSDVININIYNPCVVPNINNAECQFLKSVL
Kd [1]: ~5.3 µM
binding result [2]: binds
binding result [3]: binds
binding result [4]: binds
binding result [5]: binds
binding result [6]: binds

— article doi:10.1101/2023.08.28.555102 (bioRxiv, 2023)
